Experimental data taken from patent US20060257938A1, “Method of screening for drugs that block ligand binding to a lipid binding protein” (priority 2005, published 2006).

Experiments:
Format in all cases: binding
[1] = Probe fluorescence ratio response to palmitic acid relative to ADIFAB2; details: Table 4
In short: (§1)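 Fluorescently labeled rat intestinal FABP variants were read at two emission wavelengths, near the unbound maximum (about 420 to 480 nm) and the FFA-bound maximum (about 495 to 580 nm). R = Fλ1/Fλ2 after subtracting probe-free intensity; ΔR = R+agent − R0, normalized to ADIFAB2 (rI-FABP-L72A).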

[2] = Probe fluorescence ratio response to arachidonic acid relative to ADIFAB2; details: Table 4; Arachidonic acid
In short: as §1

[3] = Probe fluorescence ratio response to linolenic acid relative to ADIFAB2; details: Table 4
In short: as §1

[4] = Probe fluorescence ratio response to linoleic acid relative to ADIFAB2; details: Table 4
In short: as §1

[5] = Probe fluorescence ratio response to oleic acid relative to ADIFAB2; details: Table 4
In short: as §1

Molecule | ΔR/DRAΔ2 PA [1] | ΔR/DRAΔ2 AA [2] | ΔR/DRAΔ2 LNA [3] | ΔR/DRAΔ2 LA [4] | ΔR/DRAΔ2 OA [5]
L1P12F12: FABP probe, substitutions Y14L L72G Y117V vs SEQ ID NO: 2 (protein, listed as Rattus norvegicus, PEPTIDE (1)...(131) wild-type rat intestinal fatty acid binding protein) AFDGTWKVDRNENLEKFMEKMGINVVKRKLGAHDNLKLTITQEGNKFTVKESSNFRNIDVVFELGVDFAYSGADGTELTGTWTMEGNKLVGKFKRVDNGKELIAVREISGNELIQTVTYEGVEAKRIFKKE | 0.1 | 0.9 | 0.5 | 0.5 | 0.3
L1P14A9: FABP probe, substitutions Y14L L72G Y117I vs SEQ ID NO: 2 (protein, listed as Rattus norvegicus, PEPTIDE (1)...(131) wild-type rat intestinal fatty acid binding protein) AFDGTWKVDRNENLEKFMEKMGINVVKRKLGAHDNLKLTITQEGNKFTVKESSNFRNIDVVFELGVDFAYSGADGTELTGTWTMEGNKLVGKFKRVDNGKELIAVREISGNELIQTITYEGVEAKRIFKKE | 0.2 | 0.8 | 0.8 | 0.8 | 0.4
L1P5A10: FABP probe, substitution Y117A vs SEQ ID NO: 2 (protein, listed as Rattus norvegicus, PEPTIDE (1)...(131) wild-type rat intestinal fatty acid binding protein) AFDGTWKVDRNENYEKFMEKMGINVVKRKLGAHDNLKLTITQEGNKFTVKESSNFRNIDVVFELGVDFAYSLADGTELTGTWTMEGNKLVGKFKRVDNGKELIAVREISGNELIQTATYEGVEAKRIFKKE | 0.4 | 1.5 | 0.7 | 1.2 | 1.1
L1P1F7: FABP probe, substitutions Y14L L38M Y117F vs SEQ ID NO: 2 (protein, listed as Rattus norvegicus, PEPTIDE (1)...(131) wild-type rat intestinal fatty acid binding protein) AFDGTWKVDRNENLEKFMEKMGINVVKRKLGAHDNLKMTITQEGNKFTVKESSNFRNIDVVFELGVDFAYSLADGTELTGTWTMEGNKLVGKFKRVDNGKELIAVREISGNELIQTFTYEGVEAKRIFKKE | 0.5 | 0.9 | 1.0 | 0.9 | 0.5
L1P3D6: FABP probe, substitution Y14L vs SEQ ID NO: 2 (protein, listed as Rattus norvegicus, PEPTIDE (1)...(131) wild-type rat intestinal fatty acid binding protein) AFDGTWKVDRNENLEKFMEKMGINVVKRKLGAHDNLKLTITQEGNKFTVKESSNFRNIDVVFELGVDFAYSLADGTELTGTWTMEGNKLVGKFKRVDNGKELIAVREISGNELIQTYTYEGVEAKRIFKKE | 0.5 | 0.9 | 0.9 | 0.8 | 0.5
L1P11F12: FABP probe, substitutions Y14L L38I vs SEQ ID NO: 2 (protein, listed as Rattus norvegicus, PEPTIDE (1)...(131) wild-type rat intestinal fatty acid binding protein) AFDGTWKVDRNENLEKFMEKMGINVVKRKLGAHDNLKITITQEGNKFTVKESSNFRNIDVVFELGVDFAYSLADGTELTGTWTMEGNKLVGKFKRVDNGKELIAVREISGNELIQTYTYEGVEAKRIFKKE | 0.7 | 1.0 | 1.2 | 1.1 | 0.7
L1P17A8: FABP probe, substitutions L38M L72G Y117F vs SEQ ID NO: 2 (protein, listed as Rattus norvegicus, PEPTIDE (1)...(131) wild-type rat intestinal fatty acid binding protein) AFDGTWKVDRNENYEKFMEKMGINVVKRKLGAHDNLKMTITQEGNKFTVKESSNFRNIDVVFELGVDFAYSGADGTELTGTWTMEGNKLVGKFKRVDNGKELIAVREISGNELIQTFTYEGVEAKRIFKKE | 0.4 | 1.3 | 0.7 | 0.8 | 0.7
L1P8H2: FABP probe, substitutions Y14M L38M L72W vs SEQ ID NO: 2 (protein, listed as Rattus norvegicus, PEPTIDE (1)...(131) wild-type rat intestinal fatty acid binding protein) AFDGTWKVDRNENMEKFMEKMGINVVKRKLGAHDNLKMTITQEGNKFTVKESSNFRNIDVVFELGVDFAYSWADGTELTGTWTMEGNKLVGKFKRVDNGKELIAVREISGNELIQTYTYEGVEAKRIFKKE | −0.6 | −1.3 | −1.3 | −1.5 | −1.7
L1P16G10: FABP probe, substitutions Y14W L72M Y117A vs SEQ ID NO: 2 (protein, listed as Rattus norvegicus, PEPTIDE (1)...(131) wild-type rat intestinal fatty acid binding protein) AFDGTWKVDRNENWEKFMEKMGINVVKRKLGAHDNLKLTITQEGNKFTVKESSNFRNIDVVFELGVDFAYSMADGTELTGTWTMEGNKLVGKFKRVDNGKELIAVREISGNELIQTATYEGVEAKRIFKKE | 0.8 | 0.9 | 1.3 | 1.1 | 0.7
L1P8D4: FABP probe, substitutions Y14M L72M Y117A vs SEQ ID NO: 2 (protein, listed as Rattus norvegicus, PEPTIDE (1)...(131) wild-type rat intestinal fatty acid binding protein) AFDGTWKVDRNENMEKFMEKMGINVVKRKLGAHDNLKLTITQEGNKFTVKESSNFRNIDVVFELGVDFAYSMADGTELTGTWTMEGNKLVGKFKRVDNGKELIAVREISGNELIQTATYEGVEAKRIFKKE | 0.9 | 1.6 | 2.0 | 2.0 | 1.1
L1P9G10: FABP probe, substitutions L38I L72G vs SEQ ID NO: 2 (protein, listed as Rattus norvegicus, PEPTIDE (1)...(131) wild-type rat intestinal fatty acid binding protein) AFDGTWKVDRNENYEKFMEKMGINVVKRKLGAHDNLKITITQEGNKFTVKESSNFRNIDVVFELGVDFAYSGADGTELTGTWTMEGNKLVGKFKRVDNGKELIAVREISGNELIQTYTYEGVEAKRIFKKE | 0.4 | 1.0 | 0.7 | 0.8 | 0.9
L1P2F7: FABP probe, substitutions Y14I L72G Y117V vs SEQ ID NO: 2 (protein, listed as Rattus norvegicus, PEPTIDE (1)...(131) wild-type rat intestinal fatty acid binding protein) AFDGTWKVDRNENIEKFMEKMGINVVKRKLGAHDNLKLTITQEGNKFTVKESSNFRNIDVVFELGVDFAYSGADGTELTGTWTMEGNKLVGKFKRVDNGKELIAVREISGNELIQTVTYEGVEAKRIFKKE | 0.1 | 0.9 | 0.5 | 0.6 | 0.3
L1P12G10: FABP probe, substitution Y14I vs SEQ ID NO: 2 (protein, listed as Rattus norvegicus, PEPTIDE (1)...(131) wild-type rat intestinal fatty acid binding protein) AFDGTWKVDRNENIEKFMEKMGINVVKRKLGAHDNLKLTITQEGNKFTVKESSNFRNIDVVFELGVDFAYSLADGTELTGTWTMEGNKLVGKFKRVDNGKELIAVREISGNELIQTYTYEGVEAKRIFKKE | 0.8 | 0.8 | 1.0 | 0.9 | 0.5
L1P7B11: FABP probe, substitutions Y14I L38I L72V vs SEQ ID NO: 2 (protein, listed as Rattus norvegicus, PEPTIDE (1)...(131) wild-type rat intestinal fatty acid binding protein) AFDGTWKVDRNENIEKFMEKMGINVVKRKLGAHDNLKITITQEGNKFTVKESSNFRNIDVVFELGVDFAYSVADGTELTGTWTMEGNKLVGKFKRVDNGKELIAVREISGNELIQTYTYEGVEAKRIFKKE | 0.8 | 0.7 | 0.9 | 0.9 | 0.4
L1P7H4: FABP probe, substitutions Y14I L38M L72W vs SEQ ID NO: 2 (protein, listed as Rattus norvegicus, PEPTIDE (1)...(131) wild-type rat intestinal fatty acid binding protein) AFDGTWKVDRNENIEKFMEKMGINVVKRKLGAHDNLKMTITQEGNKFTVKESSNFRNIDVVFELGVDFAYSWADGTELTGTWTMEGNKLVGKFKRVDNGKELIAVREISGNELIQTYTYEGVEAKRIFKKE | −0.6 | −1.0 | −1.1 | −1.3 | −1.4
